Source: patent US11046981B2, “Host cell modified to produce lactams” (The Regents of the University of California, priority 2016, dated 2021)

What was measured:
[1] = molecular target: T1, ORF27 (Streptomyces aizunensis, UniProt Q52V65); experiment: ATP-PPi release assay for ORF27 (substrate range, steady state parameters); type: biochemical; settings: substrates with a negatively charged group on the ω-terminal end
T1 sequence (Q52V65 1-470): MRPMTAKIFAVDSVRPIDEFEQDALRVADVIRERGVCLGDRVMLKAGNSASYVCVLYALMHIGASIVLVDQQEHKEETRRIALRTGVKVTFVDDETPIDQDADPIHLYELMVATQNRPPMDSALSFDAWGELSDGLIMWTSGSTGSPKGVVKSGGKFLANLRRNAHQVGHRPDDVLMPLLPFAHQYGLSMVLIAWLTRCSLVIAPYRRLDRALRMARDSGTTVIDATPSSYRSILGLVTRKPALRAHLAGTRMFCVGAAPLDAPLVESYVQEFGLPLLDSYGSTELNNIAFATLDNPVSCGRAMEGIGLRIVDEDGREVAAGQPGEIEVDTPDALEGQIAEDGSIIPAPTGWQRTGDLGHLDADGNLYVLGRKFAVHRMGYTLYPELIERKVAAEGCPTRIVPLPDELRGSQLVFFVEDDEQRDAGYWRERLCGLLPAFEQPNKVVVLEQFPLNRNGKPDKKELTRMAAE
Procedure: The substrate range of ORF27 was determined by ATP-PPi release assays as previously described (12). Without prior knowledge about the reaction pathways, the ATP-PPi assay served a semi-quantitative method to compare substrate induced acceleration of ATP consumption. For kinetic investigation of ORF27 activity with different substrates, the inorganic pyrophosphate released by enzymatic reaction was measured continuously using the EnzChek Pyrophosphate Assay Kit (Invitrogen). A typical assay contained in a total volume of 150 μL: 5 μM of ORF27, 0-20 mM substrates, 1 mM ATP, 1 mM CoASH and 1 mM Mg(Cl)2 in 100 mM HEPES, pH 7.5. 2-amino-6-mercapto-7-methylpurine ribonucleoside (MESG) substrate, purine nucleoside phosphorylase and inorganic pyrophosphatase were added according to the protocol. Reactions were initiated by the addition of ATP and monitored at 360 nm with SpectraMax M2 (Molecular Devices, Sunnyvale, Calif.). Initial velocities were calculated using the standard curve for inorganic pyrophosphate. For each concentration, control reactions were carried out without enzyme or without ATP. The rates of PPi release were converted to observed rates, and the Michaelis-Menten kinetic parameters were obtained. […]
The sensitivity of the ATP-PPi release assay (5 μM Pi) allowed the initial velocity to be determined within the first 2 min of reaction incubation. […]

[2] = molecular target: T1, ORF27; experiment: In vitro ORF27 lactam formation with ATP or ADP, product analysis by HPLC-MS; type: biochemical; settings: ADP instead of ATP to activate ω-amino fatty acids
Procedure: (§1) To compare formation of various lactams by ORF27, a reaction mixture containing […] of ORF27, 5 mM ω-amino fatty acids substrates, 1 mM ATP or ADP, 0.5 mM CoASH and 1 mM Mg(CI)2 in 100 mM HEPES (pH=8) was incubated at 25° C. The reactions were quenched by addition of methanol to a final concentration of 50% (v/v) at multiple time points (0 min, 15 min, 1 h, 2 h, 4 h and 19 h). The resulting quenched reactions were kept at 4° C. and filtered through 10 K Amicon Ultra-0.5 mL Centrifugal Filters (Millipore) at 8000×g for 30 min. The filtered solutions were analyzed for lactams and nucleotides using HPLC-MS. Control reactions were carried out without enzyme, without substrate, without ATP, without CoASH or without MgCl2 (supplying additional 0.2 mM EDTA to chelate Mg^2+ ions from purified protein stock). Caprolactam, valerolactam and butyrolactam, AMP, ADP and ATP were purchased as standards from Sigma-Aldrich. The pH dependence of ORF27-catalyzed butrylactam formation was determined using an end-point assay, and the amount of butyrolactam was determined using the HPLC-MS method described above.
The ORF27-catalyzed lactam formation reaction in vitro was monitored for both nucleotide and lactam products, using either ATP or ADP as the energy source. […] In the absence of ORF27, ATP remained stable throughout the reaction (FIG. 6A). […]

[3] = Solubility noted during preparation of substrate stock solution; type: physicochemical; settings: under neutral pH; HCl added to obtain 100 mM stock solution in pH ~2.0
Text: (§2) The acids assayed were glutamic acid, γ-aminobutyrate (GABA), 4-guanidinobutyric acid, (S)-3-hydroxyl-butyric acid, valeric acid, 4-methyl-hexanoic acid, 3-aminobutyric acid, 6-aminocaproic acid, 6-guanidinohexanoic acid, glutaric acid, adipic acid, 2-aminobutyric acid and (Sigma-Aldrich, St. Louis, Mo.).

[4] = pH profile of ORF27 catalyzed butyrolactam formation (end-point assay); type: biochemical
Procedure: FIG. 8. pH profile of ORF27 catalyzed butyrolactam formation. A reaction mixture containing 5 μM ORF27, 1 mM GABA, 1 mM ATP, 1 mM CoASH and 1 mM Mg(Cl)2 in 100 mM HEPES (pH 7.5) was incubated at 25° C. for 30 min. The reaction was quenched by equal volume of methanol, and the filtered solution was analyzed by analytical method described above.
as §1, with “Caprolactam, valerolactam and butyrolactam, AMP, ADP and ATP were purchased as standards from Sigma-Aldrich.” left out

[5] = substrate: NCCCCCC(=O)O; experiment: ATP-PPi release assay for ORF27 (substrate range, steady state parameters); type: biochemical, Streptomyces aizunensis; settings: other: 100 mM HEPES, pH 7.5 at 25° C.
Procedure: (§3) The substrate range of ORF27 was determined by ATP-PPi release assays as previously described (12). Without prior knowledge about the reaction pathways, the ATP-PPi assay served a semi-quantitative method to compare substrate induced acceleration of ATP consumption. For kinetic investigation of ORF27 activity with different substrates, the inorganic pyrophosphate released by enzymatic reaction was measured continuously using the EnzChek Pyrophosphate Assay Kit (Invitrogen). A typical assay contained in a total volume of 150 μL: 5 μM of ORF27, 0-20 mM substrates, 1 mM ATP, 1 mM CoASH and 1 mM Mg(Cl)2 in 100 mM HEPES, pH 7.5. 2-amino-6-mercapto-7-methylpurine ribonucleoside (MESG) substrate, purine nucleoside phosphorylase and inorganic pyrophosphatase were added according to the protocol. Reactions were initiated by the addition of ATP and monitored at 360 nm with SpectraMax M2 (Molecular Devices, Sunnyvale, Calif.). Initial velocities were calculated using the standard curve for inorganic pyrophosphate. For each concentration, control reactions were carried out without enzyme or without ATP. The rates of PPi release were converted to observed rates, and the Michaelis-Menten kinetic parameters were obtained.
as §2
(§4) The sensitivity of the ATP-PPi release assay (5 μM Pi) allowed the initial velocity to be determined within the first 2 min of reaction incubation. During this time period, ATP hydrolysis activity by ORF27 was not observed according to the ATP-PPi assay (ATP hydrolysis was observed over longer period of time though, see discussion below).

[6] = substrate: CCC(C)CCC(=O)O; experiment: as above; type: biochemical, Streptomyces aizunensis; settings: other: 100 mM HEPES, pH 7.5 at 25° C.
Procedure: as §3, §2, §4

[7] = substrate: N=C(N)NCCCCCC(=O)O; experiment: as above; type: biochemical, Streptomyces aizunensis; settings: other: 100 mM HEPES, pH 7.5 at 25° C.
Procedure: as §3, §2, §4

[8] = substrate: NCCCC(=O)O; experiment: as above; type: biochemical, Streptomyces aizunensis; settings: other: 100 mM HEPES, pH 7.5 at 25° C.
Procedure: as §3, §2, §4

[9] = substrate: N=C(N)NCCCC(=O)O; experiment: as above; type: biochemical, Streptomyces aizunensis; settings: other: 100 mM HEPES, pH 7.5 at 25° C.
Procedure: as §3, §2, §4

[10] = substrate: CCCCC(=O)O; experiment: as above; type: biochemical, Streptomyces aizunensis; settings: other: 100 mM HEPES, pH 7.5 at 25° C.
Procedure: as §3, §2, §4

[11] = substrate: CCC(N)C(=O)O; experiment: as above; type: biochemical, Streptomyces aizunensis; settings: other: 100 mM HEPES, pH 7.5 at 25° C.
Procedure: as §3, §2, §4

## O=C(O)CCCCC(=O)O [adipic acid, Adipic acid]
[1]
  enzyme activity of ORF27 on the substrate: not observed

## O=C(O)CCCC(=O)O [glutaric acid, Glutaric acid]
[1]
  enzyme activity of ORF27 on the substrate: not observed

## Nc1ncnc2c1ncn2[C@@H]1O[C@H](COP(=O)(O)OP(=O)(O)O)[C@@H](O)[C@H]1O [ADP]
[2]
  rate of lactam formation with ADP relative to the similar reaction with ATP: 20-50%

## N=C(N)NCCCCCC(=O)O [6-Guanidinohexanoic acid]
[3]
  solubility: low solubility

B1: ORF27 (Streptomyces aizunensis) (protein)
chain: T1 sequence (Q52V65 1-470)
[4]
  pH below which the enzyme precipitated and became inactive: below 6.0
  pH optimum: 8.0
[5]
  Km: 56 µM
  kcat: 0.00283 s⁻¹
  kcat/Km: 49.4 M⁻¹ s⁻¹
[6]
  Km: 12100 µM
  kcat: 0.0217 s⁻¹
  kcat/Km: 1.8 M⁻¹ s⁻¹
[7]
  Km: 110 µM
  kcat: 0.0055 s⁻¹
  kcat/Km: 49 M⁻¹ s⁻¹
[8]
  Km: 17200 µM
  kcat: 0.00583 s⁻¹
  kcat/Km: 0.338 M⁻¹ s⁻¹
[9]
  Km: 13 µM
  kcat: 0.002 s⁻¹
  kcat/Km: 157 M⁻¹ s⁻¹
[10]
  Km: 52200 µM
  kcat: 0.0283 s⁻¹
  kcat/Km: 0.543 M⁻¹ s⁻¹
[11]
  Km: 1630 µM
  kcat: 0.0006 s⁻¹
  kcat/Km: 0.37 M⁻¹ s⁻¹
